Assay results published in patent US20240252592A1 (TIANJIN INSTITUTE OF PHARMACEUTICAL RESEARCH, published 2024).
Numbered stars: 1 amine (or outer) side, 2 acyl side, 3 side chain; on linkers, the order of the positions; unused ones are H or OH. Square brackets hold non-standard residues; d marks the D form. Side chains are listed from the residue outwards. Ends that are not written are not given here. * marks the point of attachment. C20 diacid = O=C(O)CCCCCCCCCCCCCCCCCCC(=O)*; C18 diacid = O=C(O)CCCCCCCCCCCCCCCCC(=O)*; γGlu = O=C(O)[C@H](CCC(=O)[*:2])N[*:1]; Palmitoyl = CCCCCCCCCCCCCCCC(=O)*; AEEA = NCCOCCOCC(=O)O; Aib = CC(C)(N)C(=O)O

How the values were obtained:
[1] = target: GC receptor; test: cell-based or functional assay
[2] = target: human GLP-1 receptor (human, UniProt P43220 24-463); test: cell-based or functional assay

Binder	EC50 of GC receptor mediated cAMP production [1]	EC50 of GLP-1 receptor mediated cAMP production [2]
HXQGTFTSDKSKYLEERAAKEFVAWLKEGGPSSG (HELM PEPTIDE1{H.[Aib].Q.G.T.F.T.S.D.K.S.K.Y.L.E.E.R.A.A.K.E.F.V.A.W.L.K.E.G.G.P.S.S.G.[am]}|PEPTIDE2{[CCCCCCCCCCCCCCCC(=O)[*:2]].[gGlu].[gGlu]}$PEPTIDE1,PEPTIDE2,10:R3-3:R2$$$V2.0; N-terminus assumed; SMILES CCCCCCCCCCCCCCCC(=O)N[C@@H](CCC(=O)N[C@@H](CCC(=O)NCCCC[C@H](NC(=O)[C@H](CC(=O)O)NC(=O)[C@H](CO)NC(=O)[C@@H](NC(=O)[C@H](Cc1ccccc1)NC(=O)[C@@H](NC(=O)CNC(=O)[C@H](CCC(N)=O)NC(=O)C(C)(C)NC(=O)[C@@H](N)Cc1c[nH]cn1)[C@@H](C)O)[C@@H](C)O)C(=O)N[C@@H](CO)C(=O)N[C@@H](CCCCN)C(=O)N[C@@H](Cc1ccc(O)cc1)C(=O)N[C@@H](CC(C)C)C(=O)N[C@@H](CCC(=O)O)C(=O)N[C@@H](CCC(=O)O)C(=O)N[C@@H](CCCNC(=N)N)C(=O)N[C@@H](C)C(=O)N[C@@H](C)C(=O)N[C@@H](CCCCN)C(=O)N[C@@H](CCC(=O)O)C(=O)N[C@@H](Cc1ccccc1)C(=O)N[C@H](C(=O)N[C@@H](C)C(=O)N[C@@H](Cc1c[nH]c2ccccc12)C(=O)N[C@@H](CC(C)C)C(=O)N[C@@H](CCCCN)C(=O)N[C@@H](CCC(=O)O)C(=O)NCC(=O)NCC(=O)N1CCC[C@H]1C(=O)N[C@@H](CO)C(=O)N[C@@H](CO)C(=O)NCC(N)=O)C(C)C)C(=O)O)C(=O)O) [Compound 3]	0.1 nM	20.8 nM
HXQGTFTSDKSKYLXERAAKEFVXWLEAGGPSSG (HELM PEPTIDE1{H.[Aib].Q.G.T.F.T.S.D.K.S.K.Y.L.E.E.R.A.A.K.E.F.V.A.W.L.E.A.G.G.P.S.S.G.[am]}|PEPTIDE2{[CCCCCCCCCCCCCCCC(=O)[*:2]].[gGlu].[gGlu]}$PEPTIDE1,PEPTIDE2,10:R3-3:R2$$$V2.0; N-terminus assumed; SMILES CCCCCCCCCCCCCCCC(=O)N[C@@H](CCC(=O)N[C@@H](CCC(=O)NCCCC[C@H](NC(=O)[C@H](CC(=O)O)NC(=O)[C@H](CO)NC(=O)[C@@H](NC(=O)[C@H](Cc1ccccc1)NC(=O)[C@@H](NC(=O)CNC(=O)[C@H](CCC(N)=O)NC(=O)C(C)(C)NC(=O)[C@@H](N)Cc1c[nH]cn1)[C@@H](C)O)[C@@H](C)O)C(=O)N[C@@H](CO)C(=O)N[C@@H](CCCCN)C(=O)N[C@@H](Cc1ccc(O)cc1)C(=O)N[C@@H](CC(C)C)C(=O)N[C@@H](CCC(=O)O)C(=O)N[C@@H](CCC(=O)O)C(=O)N[C@@H](CCCNC(=N)N)C(=O)N[C@@H](C)C(=O)N[C@@H](C)C(=O)N[C@@H](CCCCN)C(=O)N[C@@H](CCC(=O)O)C(=O)N[C@@H](Cc1ccccc1)C(=O)N[C@H](C(=O)N[C@@H](C)C(=O)N[C@@H](Cc1c[nH]c2ccccc12)C(=O)N[C@@H](CC(C)C)C(=O)N[C@@H](CCC(=O)O)C(=O)N[C@@H](C)C(=O)NCC(=O)NCC(=O)N1CCC[C@H]1C(=O)N[C@@H](CO)C(=O)N[C@@H](CO)C(=O)NCC(N)=O)C(C)C)C(=O)O)C(=O)O) [Compound 4]	0.024 nM	–
HXQGTFTSDKSKYLXERAAKEFVXWLEAGGPSSG (HELM PEPTIDE1{H.[Aib].Q.G.T.F.T.S.D.K.S.K.Y.L.E.E.R.A.A.K.E.F.V.E.W.L.E.A.G.G.P.S.S.G.[am]}|PEPTIDE2{[CCCCCCCCCCCCCCCC(=O)[*:2]].[gGlu].[gGlu]}$PEPTIDE1,PEPTIDE2,10:R3-3:R2$$$V2.0; N-terminus assumed; SMILES CCCCCCCCCCCCCCCC(=O)N[C@@H](CCC(=O)N[C@@H](CCC(=O)NCCCC[C@H](NC(=O)[C@H](CC(=O)O)NC(=O)[C@H](CO)NC(=O)[C@@H](NC(=O)[C@H](Cc1ccccc1)NC(=O)[C@@H](NC(=O)CNC(=O)[C@H](CCC(N)=O)NC(=O)C(C)(C)NC(=O)[C@@H](N)Cc1c[nH]cn1)[C@@H](C)O)[C@@H](C)O)C(=O)N[C@@H](CO)C(=O)N[C@@H](CCCCN)C(=O)N[C@@H](Cc1ccc(O)cc1)C(=O)N[C@@H](CC(C)C)C(=O)N[C@@H](CCC(=O)O)C(=O)N[C@@H](CCC(=O)O)C(=O)N[C@@H](CCCNC(=N)N)C(=O)N[C@@H](C)C(=O)N[C@@H](C)C(=O)N[C@@H](CCCCN)C(=O)N[C@@H](CCC(=O)O)C(=O)N[C@@H](Cc1ccccc1)C(=O)N[C@H](C(=O)N[C@@H](CCC(=O)O)C(=O)N[C@@H](Cc1c[nH]c2ccccc12)C(=O)N[C@@H](CC(C)C)C(=O)N[C@@H](CCC(=O)O)C(=O)N[C@@H](C)C(=O)NCC(=O)NCC(=O)N1CCC[C@H]1C(=O)N[C@@H](CO)C(=O)N[C@@H](CO)C(=O)NCC(N)=O)C(C)C)C(=O)O)C(=O)O) [Compound 2]	0.0352 nM	–
H[Aib]QGTFTSDK([γGlu-γGlu-Palmitoyl])SKYLEERAAKEFVEWLEGGPSSG-NH2 (not fully specified; printed as HAibQGTFTSDK*SKYLEERAAKEFVEWLEGGPSSG-Amid) [Compound 7]	–	0.72 nM
H[Aib]QGTFTSDK([AEEA-AEEA-γGlu-C18 diacid])SKYLEERAAKEFIAWLEGGPSSG-NH2 (not fully specified; printed as HAibQGTFTSDK**SKYLEERAAKEFIAWLEGGPSSG-Amid) [Compound 6]	0.052 nM	–
HXQGTFTSDKSKYLXERAAKEFVXWLEGGPSSG (HELM PEPTIDE1{H.[Aib].Q.G.T.F.T.S.D.K.S.K.Y.L.E.E.R.A.A.K.E.F.V.E.W.L.E.G.G.P.S.S.G.[am]}|PEPTIDE2{[CCCCCCCCCCCCCCCC(=O)[*:2]].[gGlu].[gGlu]}$PEPTIDE1,PEPTIDE2,10:R3-3:R2$$$V2.0; N-terminus assumed; SMILES CCCCCCCCCCCCCCCC(=O)N[C@@H](CCC(=O)N[C@@H](CCC(=O)NCCCC[C@H](NC(=O)[C@H](CC(=O)O)NC(=O)[C@H](CO)NC(=O)[C@@H](NC(=O)[C@H](Cc1ccccc1)NC(=O)[C@@H](NC(=O)CNC(=O)[C@H](CCC(N)=O)NC(=O)C(C)(C)NC(=O)[C@@H](N)Cc1c[nH]cn1)[C@@H](C)O)[C@@H](C)O)C(=O)N[C@@H](CO)C(=O)N[C@@H](CCCCN)C(=O)N[C@@H](Cc1ccc(O)cc1)C(=O)N[C@@H](CC(C)C)C(=O)N[C@@H](CCC(=O)O)C(=O)N[C@@H](CCC(=O)O)C(=O)N[C@@H](CCCNC(=N)N)C(=O)N[C@@H](C)C(=O)N[C@@H](C)C(=O)N[C@@H](CCCCN)C(=O)N[C@@H](CCC(=O)O)C(=O)N[C@@H](Cc1ccccc1)C(=O)N[C@H](C(=O)N[C@@H](CCC(=O)O)C(=O)N[C@@H](Cc1c[nH]c2ccccc12)C(=O)N[C@@H](CC(C)C)C(=O)N[C@@H](CCC(=O)O)C(=O)NCC(=O)NCC(=O)N1CCC[C@H]1C(=O)N[C@@H](CO)C(=O)N[C@@H](CO)C(=O)NCC(N)=O)C(C)C)C(=O)O)C(=O)O) [Compound 5]	–	0.26 nM

Other lines, results leading:

EC50 of GC receptor mediated cAMP production [1]	EC50 of GLP-1 receptor mediated cAMP production [2]	Binder
0.076 nM	–	H[Aib]QGTFTSDK([AEEA-AEEA-γGlu-C20 diacid])SKYLDERAAKEFIAWLEAGGPSSG-NH2 (not fully specified; printed as HAibQGTFTSDK***SKYLDERAAKEFIAWLEAGGPSSG-Amid) [Compound 77]
0.033 nM	0.076 nM	H[Aib]QGTFTSDK([AEEA-AEEA-γGlu-C20 diacid])SKYLDERAAKEFVAWLEAGGPSSG-NH2 (not fully specified; printed as HAibQGTFTSDK***SKYLDERAAKEFVAWLEAGGPSSG-Amid) [Compound 13]
0.087 nM	–	H[Aib]QGTFTSDK([AEEA-AEEA-γGlu-C18 diacid])SKYLDERAAKEFIAWLEGGPSSG-NH2 (not fully specified; printed as HAibQGTFTSDK**SKYLDERAAKEFIAWLEGGPSSG-Amid) [Compound 75]
1.73 nM	3.05 nM	HXQGTFTSDKSKYLXEKRAKEFIXWLEAGGPSSG (HELM PEPTIDE1{H.[Aib].Q.G.T.F.T.S.D.K.S.K.Y.L.E.E.K.R.A.K.E.F.I.E.W.L.E.A.G.G.P.S.S.G.[am]}|PEPTIDE2{[CCCCCCCCCCCCCCCC(=O)[*:2]].[gGlu].[gGlu]}$PEPTIDE1,PEPTIDE2,10:R3-3:R2$$$V2.0; N-terminus assumed; SMILES CCCCCCCCCCCCCCCC(=O)N[C@@H](CCC(=O)N[C@@H](CCC(=O)NCCCC[C@H](NC(=O)[C@H](CC(=O)O)NC(=O)[C@H](CO)NC(=O)[C@@H](NC(=O)[C@H](Cc1ccccc1)NC(=O)[C@@H](NC(=O)CNC(=O)[C@H](CCC(N)=O)NC(=O)C(C)(C)NC(=O)[C@@H](N)Cc1c[nH]cn1)[C@@H](C)O)[C@@H](C)O)C(=O)N[C@@H](CO)C(=O)N[C@@H](CCCCN)C(=O)N[C@@H](Cc1ccc(O)cc1)C(=O)N[C@@H](CC(C)C)C(=O)N[C@@H](CCC(=O)O)C(=O)N[C@@H](CCC(=O)O)C(=O)N[C@@H](CCCCN)C(=O)N[C@@H](CCCNC(=N)N)C(=O)N[C@@H](C)C(=O)N[C@@H](CCCCN)C(=O)N[C@@H](CCC(=O)O)C(=O)N[C@@H](Cc1ccccc1)C(=O)N[C@H](C(=O)N[C@@H](CCC(=O)O)C(=O)N[C@@H](Cc1c[nH]c2ccccc12)C(=O)N[C@@H](CC(C)C)C(=O)N[C@@H](CCC(=O)O)C(=O)N[C@@H](C)C(=O)NCC(=O)NCC(=O)N1CCC[C@H]1C(=O)N[C@@H](CO)C(=O)N[C@@H](CO)C(=O)NCC(N)=O)[C@@H](C)CC)C(=O)O)C(=O)O) [Compound 11]
0.036 nM	–	H[Aib]QGTFTSDK([AEEA-AEEA-γGlu-C20 diacid])SKYLEERAAKEFIAWLEAGGPSSG-NH2 (not fully specified; printed as HAibQGTFTSDK***SKYLEERAAKEFIAWLEAGGPSSG-Amid) [Compound 35]
